Data: patent publication US20210388084A1 (JJP BIOLOGICS SP Z O O, published 2021)

T1: chimeric bovine EC1-Fcγ2R/human EC2-CD89 (bovine/human chimera)
T1 chain: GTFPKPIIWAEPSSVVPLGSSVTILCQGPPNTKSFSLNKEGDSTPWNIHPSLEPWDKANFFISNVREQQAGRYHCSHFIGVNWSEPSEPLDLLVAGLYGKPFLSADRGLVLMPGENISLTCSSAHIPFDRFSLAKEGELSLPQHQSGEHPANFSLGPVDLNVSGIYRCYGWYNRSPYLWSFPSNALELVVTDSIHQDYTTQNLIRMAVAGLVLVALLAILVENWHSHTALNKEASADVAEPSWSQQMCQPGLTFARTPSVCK

T2: chimeric human/cynomolgus monkey CD89-II (human/cynomolgus monkey chimera, UniProt P24071 22-287)
T2 construct: also called ΔIle47-Ile71 human EC1-CD89; II (47-71)
T2 chain: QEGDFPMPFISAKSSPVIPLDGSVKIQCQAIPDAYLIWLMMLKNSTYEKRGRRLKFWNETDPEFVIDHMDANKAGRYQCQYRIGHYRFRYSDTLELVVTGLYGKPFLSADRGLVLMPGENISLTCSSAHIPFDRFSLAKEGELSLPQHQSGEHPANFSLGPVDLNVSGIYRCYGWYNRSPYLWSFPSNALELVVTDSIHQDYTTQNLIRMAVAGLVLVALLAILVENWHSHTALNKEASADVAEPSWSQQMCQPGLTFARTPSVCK

T3: chimeric human/cynomolgus monkey CD89-I (human/cynomolgus monkey chimera, UniProt P24071 22-287)
T3 construct: also called ΔGln22-Lys46 human EC1-CD89; I (22-46)
T3 chain: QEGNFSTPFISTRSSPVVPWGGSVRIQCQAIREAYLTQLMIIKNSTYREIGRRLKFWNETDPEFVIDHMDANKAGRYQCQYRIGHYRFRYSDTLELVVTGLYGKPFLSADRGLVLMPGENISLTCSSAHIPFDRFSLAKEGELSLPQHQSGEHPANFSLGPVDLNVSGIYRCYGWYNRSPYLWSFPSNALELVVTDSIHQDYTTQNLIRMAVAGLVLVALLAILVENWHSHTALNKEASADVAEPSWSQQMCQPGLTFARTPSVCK

T4: chimeric human/cynomolgus monkey CD89-III (human/cynomolgus monkey chimera, UniProt P24071 22-287)
T4 construct: also called ΔGly72-Gly96 human EC1-CD89; III (72-96)
T4 chain: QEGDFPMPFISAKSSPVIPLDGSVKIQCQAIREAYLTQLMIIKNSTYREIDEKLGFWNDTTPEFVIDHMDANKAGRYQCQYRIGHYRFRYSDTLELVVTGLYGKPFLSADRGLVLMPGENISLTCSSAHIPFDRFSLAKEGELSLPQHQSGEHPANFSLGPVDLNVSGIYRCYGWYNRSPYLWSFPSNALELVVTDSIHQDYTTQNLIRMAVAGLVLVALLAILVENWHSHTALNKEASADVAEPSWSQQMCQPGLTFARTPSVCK

T5: chimeric human/cynomolgus monkey CD89-IV (human/cynomolgus monkey chimera, UniProt P24071 22-287)
T5 construct: also called ΔArg97-Gly121 human EC1-CD89
T5 chain: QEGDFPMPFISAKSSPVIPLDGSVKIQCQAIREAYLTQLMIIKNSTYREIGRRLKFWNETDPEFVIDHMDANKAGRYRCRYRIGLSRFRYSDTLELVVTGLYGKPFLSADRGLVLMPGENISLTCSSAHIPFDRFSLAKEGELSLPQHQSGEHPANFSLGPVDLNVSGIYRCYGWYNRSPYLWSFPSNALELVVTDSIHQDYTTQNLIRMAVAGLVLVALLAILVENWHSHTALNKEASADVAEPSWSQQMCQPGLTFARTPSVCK

T6: chimeric human/cynomolgus monkey CD89-hotspots (human/cynomolgus monkey chimera, UniProt P24071 22-287)
T6 construct: also called ΔThr58, Gln59; ΔArg73, Arg74, Lys76
T6 chain: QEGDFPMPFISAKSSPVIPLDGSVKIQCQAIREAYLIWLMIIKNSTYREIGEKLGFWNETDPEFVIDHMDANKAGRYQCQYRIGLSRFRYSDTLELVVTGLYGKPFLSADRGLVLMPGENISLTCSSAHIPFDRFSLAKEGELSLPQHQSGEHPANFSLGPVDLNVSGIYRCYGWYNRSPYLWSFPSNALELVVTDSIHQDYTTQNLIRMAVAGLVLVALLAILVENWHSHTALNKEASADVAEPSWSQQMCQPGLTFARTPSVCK

T7: membrane full-length cynomolgus monkey CD89 (cynomolgus monkey)
T7 construct: also called cynoCD89; cynomolgus EC1-CD89
T7 chain: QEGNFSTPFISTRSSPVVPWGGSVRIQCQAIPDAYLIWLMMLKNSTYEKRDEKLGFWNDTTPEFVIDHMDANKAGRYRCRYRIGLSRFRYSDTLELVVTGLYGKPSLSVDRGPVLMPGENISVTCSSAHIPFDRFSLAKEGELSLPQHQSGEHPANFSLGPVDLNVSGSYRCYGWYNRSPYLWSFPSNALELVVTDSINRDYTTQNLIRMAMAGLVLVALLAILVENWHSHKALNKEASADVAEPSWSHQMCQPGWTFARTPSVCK

B1: mouse anti-human CD89-specific antibody 30C7 (antibody, mouse IgG1, V domains shown)
VH: QVQLQQSGPELVRPGVSVKISCKGSGYTFTDYVMHWVKQSHAKSLEWIGVISTYSGNTNYNQKFKGKATMTVDKSSSTAYMELARLTSEDSAIYYCARESDGYYFDYWGQGTTLTVSS
VL: DIVMSQSPSSLAVSAGEKVTMSCKSSQSLLNSRTRKNYLAWYQQKPGQSPKLLIYWASTRESGVPDRFTGSGSGTDFTLTISSVQAEDLAVYYCKQSYNLMYTFGGGTKLEIK
B2: mouse anti-human CD89-specific antibody 16D6 (antibody, mouse IgG1, V domains shown)
VH: QVQLQQSGAELMKPGASVKISCKATGYTFSTYWIEWVKQRPGHGLEWIGEILPGSGSANYNEKFKGKATFTADTSSNTAYMQLSSLTFEDSAVYYCAKGFGSPYYYAMDYWGQGTSVTVSS
VL: EIVLTQSPALMAASPGEKVTITCSVSSSISSSNLHWYQQKSETSPKPWIYGTSKLASGVPVRFSGSGSGTSYSLTISNMEAEDAATYYCQQWSSFPLTFGGGTKLEIK
notes: also called 16D16
B3: mouse anti-human CD89-specific antibody 9H7 (antibody, mouse IgG1, V domains shown)
VH: QIQLVQSGPELKKPGETVKISCKASGYTFKNYGMNWVKQAPGKGLKWMAWINTYTGEPTHTDDFKGRFVFSLETSASTAYLQINNLKNEDTATYFCARWGLGTTEEAARDYWGQGTTLTVSS
VL: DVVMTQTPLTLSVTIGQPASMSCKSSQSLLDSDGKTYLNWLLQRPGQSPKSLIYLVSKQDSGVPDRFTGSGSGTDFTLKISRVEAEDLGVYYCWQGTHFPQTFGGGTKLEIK
B4: mouse anti-human CD89-specific antibody 26D6 (antibody, mouse IgG1, V domains shown)
VH: QIQLVQSGPELKKPGETVKISCKASGYTLTKYGMNWVKQAPGKGLKWMGWINTYTGEPTYADDFKGRFAFSLETSASTAYLQINNLKNEDTATYFCASLPLFGRDSFAYWGQGTLVTVSA
VL: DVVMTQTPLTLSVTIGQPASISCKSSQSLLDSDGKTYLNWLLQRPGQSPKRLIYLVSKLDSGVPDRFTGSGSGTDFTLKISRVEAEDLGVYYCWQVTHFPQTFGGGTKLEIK
notes: printed as 26B6 in some paragraphs; also called 26B6

Legend:
[1] = target: T1, chimeric bovine EC1-Fcγ2R/human EC2-CD89; assay: FACS, transiently transfected HEK293F
Procedure: After 48 hours and/or 72 hours, the binding of CD89/IgA blocking mouse anti-human CD89 antibodies to aforementioned chimeric human/bovine receptors on transfected cells was analyzed by FACS analysis. To this end, transient transfected HEK293F cells were put at 10×10⁶ cells/mL in ice-chilled phosphate-buffered saline containing 0.1% BSA (Sigma)/0.05% NaN₃ (PBS/BSA/NaN₃) supplemented with 50 μg/mL human IgGs (blocking Fcγ receptors; Sigma) for 10 minutes at 4° C. Then, 10 μL/tube (ie, 0.1×10⁶ cells) of these cells were incubated with or without 100 μL purified mouse anti-human CD89 antibody at 10 μg/mL (in PBS/BSA/NaN₃) for 30 minutes at 4° C. […] After extensive washing in PBS/BSA/NaN₃, cells were subsequently incubated with 1:200 diluted PE-conjugated goat anti-mouse IgG Fey-specific antibodies (Jackson ImmunoResearch) for 30 minutes at 4° C. After extensive washing in PBS/BSA/NaN₃, cells were fixed in 2% formaldehyde in PBS/BSA/NaN₃ for 30 minutes at 4° C.

[2] = target: T8, membrane-bound full-length human CD89 (human, UniProt P24071 22-287); assay: FACS, HEK293F-huCD89, half-maximum binding
T8 construct: on stably or transiently transfected HEK293F cells; also called FcalphaRI; huCD89
Procedure: Then, 10 μL/tube (ie, 0.1×10⁶ cells) of these cells were incubated with or without 100 μL titrated (in PBS/BSA/NaN₃) purified chimeric mouse/human anti-human CD89 antibody/tube for 30 minutes at 4° C. […] After extensive washing in PBS/BSA/NaN₃, cells were subsequently incubated with 1:200 diluted PE-conjugated goat anti-human IgG Fey-specific antibodies (Jackson ImmunoResearch) for 30 minutes at 4° C. After extensive washing in PBS/BSA/NaN₃, cells were fixed in 2% formaldehyde in PBS/BSA/NaN₃ for 30 minutes at 4° C.

[3] = target: T9, recombinant C-terminal polyhistidine-tagged human (extracellular) CD89 (human, UniProt P24071 22-227); assay: ELISA, coated rhuCD89, half-maximum binding
T9 construct: extracellular domain; bought (Sino Biological); also called rhuCD89
Procedure: After extensive washing with PBS/0.05% Tween 20, plates were blocked with PBS/0.05% Tween 20/1% BSA (Roche) for 1 hour at RT. Subsequently, plates were incubated with 50 μL titrated (in block buffer) purified mouse anti-human CD89 antibody/well for 1 hour at RT. […] After extensive washing in PBS/0.05% Tween 20, binding of antibodies on rhuCD89 was determined with 1:5,000 diluted horseradish peroxidase (HRP)-conjugated goat anti-mouse IgG Fey-specific antibodies (Jackson ImmunoResearch) for 1 hour at RT, followed by a ready-to-use solution of TMB substrate (Invitrogen) for colorimetric detection.
After extensive washing with PBS/0.05% Tween 20, plates were blocked with PBS/0.05% Tween 20/1% BSA (Roche) for 1 hour at RT. Subsequently, plates were incubated with and without 50 μL titrated (in block buffer) purified chimeric mouse/human anti-human CD89 antibody/well for 1 hour at RT. After extensive washing in PBS/0.05% Tween 20, binding of antibodies on rhuCD89 was determined with 1:5,000 diluted horseradish peroxidase (HRP)-conjugated goat anti-human IgG Fey-specific antibodies (Jackson ImmunoResearch) for 1 hour at RT, followed by a ready-to-use solution of TMB substrate (Invitrogen) for colorimetric detection.

[4] = target: T2, chimeric human/cynomolgus monkey CD89-II; assay: FACS, transiently transfected HEK293F; - = no binding
Procedure: (§1) After 48 hours, the binding of CD89/IgA blocking mouse anti-human CD89 antibodies to aforementioned chimeric human CD89/cynomolgus monkey CD89 constructs on transfected cells was analyzed by FACS analysis. To this end, transient transfected HEK293F cells were put at 10×10⁶ cells/mL in ice-chilled phosphate-buffered saline containing 0.1% BSA (Sigma)/0.05% NaN₃ (PBS/BSA/NaN₃) supplemented with 50 μg/mL human IgGs (blocking Fcγ receptors; Sigma) for 10 minutes at 4° C. Then, 10 μL/tube (ie, 0.1×10⁶ cells) of these cells were incubated with or without 100 μL purified mouse anti-human CD89 antibody at 10 μg/mL (in PBS/BSA/NaN₃) for 30 minutes at 4° C. […] After extensive washing in PBS/BSA/NaN₃, cells were subsequently incubated with 1:200 diluted PE-conjugated goat anti-mouse IgG Fey-specific antibodies (Jackson ImmunoResearch) for 30 minutes at 4° C. After extensive washing in PBS/BSA/NaN₃, cells were fixed in 2% formaldehyde in PBS/BSA/NaN₃ for 30 minutes at 4° C.

[5] = target: T8, membrane-bound full-length human CD89; assay: FACS, HEK293F-huCD89, unlabeled Ab 10 ug/mL first; competitor A3-PE
Procedure: (§2) Then, 10 μL/tube (ie, 0.1×10⁶ cells) of these cells were incubated with or without 100 μL purified mouse anti-human CD89 antibody at 10 μg/mL (in PBS/BSA/NaN₃) for 30 minutes at 4° C. […] After extensive washing in PBS/BSA/NaN₃, cells were fixed in 2% formaldehyde in PBS/BSA/NaN₃ for 30 minutes at 4° C.

[6] = target: T8, membrane-bound full-length human CD89; assay: FACS, HEK293F-huCD89, unlabeled Ab 10 ug/mL first; competitor A59-PE
Procedure: as §2

[7] = target: T8, membrane-bound full-length human CD89; assay: FACS, HEK293F-huCD89, unlabeled Ab 10 ug/mL first; competitor MIP8a-PE
Procedure: as §2

[8] = target: T3, chimeric human/cynomolgus monkey CD89-I; assay: FACS, transiently transfected HEK293F, 10 ug/mL; ++ strong, + intermediate, -/+ weak
Procedure: as §1

[9] = target: T4, chimeric human/cynomolgus monkey …; assay: as above
Procedure: as §1

[10] = target: T5, chimeric human/cynomolgus monkey CD89-IV; assay: as above
Procedure: as §1

[11] = target: T6, chimeric human/cynomolgus monkey …; assay: as above
Procedure: as §1

[12] = target: T8, membrane-bound full-length human CD89; assay: FACS, HEK293F-huCD89, 4C +NaN3, IgA then Ab 10 ug/mL; pre-bound non-aggr serum IgA
Procedure: After this (ie, without washing), 50 μL purified mouse anti-human CD89 antibody at 20 μg/mL (in PBS/BSA/NaN₃) was added to these cells, and incubated for another 30 minutes at 4° C. […] After extensive washing in PBS/BSA/NaN₃, 1:200 diluted PE-conjugated streptavidin (Jackson ImmunoResearch) was added, and incubated for 30 minutes at 4° C. After extensive washing in PBS/BSA/NaN₃, cells were fixed in 2% formaldehyde in PBS/BSA/NaN₃ for 30 minutes at 4° C.

[13] = target: T8, membrane-bound full-length human CD89; assay: FACS, HEK293F-huCD89, 4C +NaN3, Ab 10 ug/mL then IgA; competitor non-aggr serum IgA
Procedure: Then, 10 μL/tube (ie, 0.1×10⁶ cells) of these cells were incubated with or without 50 μL purified mouse anti-human CD89 antibody at 20 μg/mL (in PBS/BSA/NaN₃) for 30 minutes at 4° C. […] After extensive washing in PBS/BSA/NaN₃, 1:200 diluted PE-conjugated streptavidin (Jackson ImmunoResearch) was added, and incubated for 30 minutes at 4° C. After extensive washing in PBS/BSA/NaN₃, cells were fixed in 2% formaldehyde in PBS/BSA/NaN₃ for 30 minutes at 4° C.

[14] = target: T8, membrane-bound full-length human CD89; assay: FACS, HEK293F-huCD89, 4C +NaN3, Ab 10 ug/mL then IgA; competitor heat-aggr serum IgA
Procedure: To mimic human IgA immune complexes, human (serum-derived) IgA (Bethyl Laboratories) was heated at 63° C. for 30 minutes, and cooled down to RT followed by centrifugation at 4° C. 12000×g for 2 minutes to remove any insoluble protein precipitation.
Then, 10 μL/tube (ie, 0.1×10⁶ cells) of these cells were incubated with or without 50 μL purified mouse anti-human CD89 antibody at 20 μg/mL (in PBS/BSA/NaN₃) for 30 minutes at 4° C.

[15] = target: T8, membrane-bound full-length human CD89; assay: FACS, HEK293F-huCD89, 24 h 37C no NaN3, IgA then Ab 10 ug/mL; pre-bound non-aggr serum IgA
Procedure: (§3) After extensive washing in PBS/BSA/NaN₃, 1:200 diluted PE-conjugated streptavidin (Jackson ImmunoResearch) was added, and incubated for 30 minutes at 4° C. After extensive washing in PBS/BSA/NaN₃, cells were fixed in 2% formaldehyde in PBS/BSA/NaN₃ for 30 minutes at 4° C.

[16] = target: T8, membrane-bound full-length human CD89; assay: FACS, HEK293F-huCD89, 24 h 37C no NaN3, Ab 10 ug/mL then IgA; competitor non-aggr serum IgA
Procedure: as §3

[17] = target: T8, membrane-bound full-length human CD89; assay: FACS, HEK293F-huCD89, 24 h 37C no NaN3, IgA then Ab 10 ug/mL; pre-bound heat-aggr serum IgA
Procedure: as §3

[18] = target: T8, membrane-bound full-length human CD89; assay: FACS, HEK293F-huCD89, 24 h 37C no NaN3, Ab 10 ug/mL then IgA; competitor heat-aggr serum IgA
Procedure: as §3

[19] = target: T6, chimeric human/cynomolgus monkey …; assay: FACS, transiently transfected HEK293F; - = no binding
Procedure: as §1

[20] = target: T2, chimeric human/cynomolgus monkey CD89-II; assay: FACS, transiently transfected HEK293F, 10 ug/mL; ++ strong, + intermediate, -/+ weak
Procedure: as §1

[21] = target: T8, membrane-bound full-length human CD89; assay: FACS, HEK293F-huCD89, 4C +NaN3, IgA then Ab 10 ug/mL; pre-bound heat-aggr serum IgA
Procedure: as §3

[22] = target: T7, membrane full-length cynomolgus monkey …; assay: FACS, transiently transfected HEK293F; - = no binding
Procedure: as §1

Binder | binding result [1] | EC50 [2] [µg/mL] | EC50 [3] [µg/mL] | % blocking of A3-PE binding [5] [%] | % blocking of A59-PE binding [6] [%] | % blocking of MIP8a-PE binding [7] [%] | binding result [8] | binding result [9] | binding result [10] | binding result [11] | percent IgA binding [12] [%] | percent IgA binding [13] [%] | percent IgA binding [14] [%] | percent IgA binding (remaining) [15] [%] | percent IgA binding (remaining) [16] [%] | percent IgA binding (remaining) [17] [%] | percent IgA binding (remaining) [18] [%] | binding result [20] | percent IgA binding [21] [%] | also measured
B1 | no binding (tested: 10 µg/mL) | 0.484 | 0.029 | < 25 | < 25 | > 90 | binds | binds | binds | binds | 26 to 50 | 0 to 25 | 0 to 25 | 0 to 25 | 0 to 25 | 0 to 25 | 0 to 25 |  |  | binding result [4]: no binding (tested: 10 µg/mL)
B2 | no binding (tested: 10 µg/mL) | 1.62 | 0.119 | < 25 | < 25 | < 25 | binds | binds | binds |  |  | 0 to 25 | 0 to 25 |  |  | 76 to 125 | 76 to 125 | binds | 76 to 125 | binding result [19]: no binding (tested: 10 µg/mL)
B3 |  |  |  |  |  | > 90 |  |  |  |  | 0 to 25 | 0 to 25 | 0 to 25 | 0 to 25 | 0 to 25 | 0 to 25 | 0 to 25 |  | 0 to 25 | 
B4 | no binding (tested: 10 µg/mL) |  |  |  |  | > 90 | binds | binds |  | binds | 0 to 25 | 0 to 25 | 0 to 25 | 0 to 25 | 0 to 25 | 0 to 25 | 0 to 25 | binds | 0 to 25 | binding result [22]: no binding (tested: 10 µg/mL)
